Measurements from PMC10618690.

How the values were obtained:
[1] = biological target: histone H3 amino acids 16-35, H3K27me2 peptide (UniProt P68431); experiment: peptide or protein array
[2] = biological target: histone H3 amino acids 16-35, H3K27me3 peptide (UniProt P68431); experiment: peptide or protein array

Row | fold increase in binding over the corresponding unmodified peptide [1] | fold increase in binding over the corresponding unmodified peptide [2] | fold increase in binding over the unmodified peptide [1] | fold increase in binding over the unmodified peptide [2] | Substance
1 | 5 fold | 3 fold | – | – | GST-tagged PWWP1 domain of Apis mellifera DNMT3 (domain or fragment)
2 | – | – | 3 fold | 3 fold | GST-tagged PWWP2 domain of Apis mellifera DNMT3 (domain or fragment)
